For experiment [1], the target named is T1, SARS-CoV-2 spike protein receptor-binding domain (SARS-CoV-2, UniProt P0DTC2). In words: SPR.
For experiment [2], the target named is T1, SARS-CoV-2 spike protein …. In words: crystal structure.

B1: LY-CoV555 (antibody, V domains shown)
VH: QVQLVQSGAEVKKPGSSVKVSCKASGGTFSNYAISWVRQAPGQGLEWMGRIIPILGIANYAQKFQGRVTITADKSTSTAYMELSSLRSEDTAVYYCARGYYEARHYYYYYAMDVWGQGTAVTVSS
VL: not shown
As for B1, the binding result in experiment [1] is given as “binds”.

B2: LY-CoV555 Fab (Fab, V domains shown)
VH: B1 VH
VL: not shown
B2: in experiment [2], the binding result is listed as “binds”.

The values are drawn from doi:10.1101/2020.09.30.318972 (bioRxiv, 2020).
